In data set [1] the target is T1, ChroM1 DNA-binding domain recombinant protein (rP, residues 2333-2480) (Homo sapiens, UniProt Q3L8U1 SEQ:2333-2480).
T1 sequence: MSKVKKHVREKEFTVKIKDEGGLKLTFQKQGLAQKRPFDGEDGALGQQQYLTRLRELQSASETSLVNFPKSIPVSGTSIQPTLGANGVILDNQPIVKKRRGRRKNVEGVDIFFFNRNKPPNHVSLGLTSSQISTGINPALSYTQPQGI
Briefly: EMSA; binding reduced by distamycin A. (In EMSA bound probe runs differently from free probe, usually more slowly.)

Data set [2] addresses T1, ChroM1 DNA-binding domain recombinant …. Briefly: EMSA; 1-3 ug rP; binding increases with protein; abolished by 100x cold oligo; 26 mM Hepes pH 7.9, 2 mM MgCl2, 40 mM KCl, RT; strandedness of probe not stated. The note with it: label: 32P. The method, then:
Electrophoretic mobility shift assay (EMSA): EMSA was performed between recombinant protein (rP) containing the DNA binding domain (residues 2333-2480 from sequence of ChroM1) and ³²P-labeled 32-mer oligonucleotide containing 24 A·T nucleotides, […] (SEQ ID NO:14). 1-3 μg of rP and 100,000 cpm of ³²P-labeled oligonucleotides were used for the binding reaction in the presence or absence of 100 fold excess cold oligonucleotide. The reaction was carried out in 20 μl of binding buffer (26 mM Hepes, pH 7.9, 2 mM MgCl₂, 40 mM KC1, 1 mM dithiothreitol and 0.25% BSA). The samples were incubated for 15 min at room temperature prior to loading in 5% native polyacrylamide gel in 0.25 Tris borate-EDTA (TBE). The gel was run for 40 min at RT and in TBE buffer. The gels were then dried and autoradiographed.

B1: BMP4 distal promoter PCR fragment (145 bp) (dsDNA)
DNA 1: GCTAAAGGAGCACAATGCCTGATGCTGCAGGAGAAACATTAGGTAACTATTTAATGGAGTTTTAATTTTCTGTTATTATTTTTAATAATTAATTGTGATTTTGACTATTTGGAAGCTACAGGTATATTTTGTCCTCCTTTTGGGG
DNA 2: CCCCAAAAGGAGGACAAAATATACCTGTAGCTTCCAAATAGTCAAAATCACAATTAATTATTAAAAATAATAACAGAAAATTAAAACTCCATTAAATAGTTACCTAATGTTTCTCCTGCAGCATCAGGCATTGTGCTCCTTTAGC
Take B1: the binding result in data set [1] is “binds”.

B2: A/T-rich 32-mer oligonucleotide (dsDNA)
DNA 1: GATCCATATATATATATATATATATATATGCA
DNA 2: TGCATATATATATATATATATATATATGGATC
Regarding B2, the binding result in data set [2] is on record as “binds”.

Source of the values: patent US20050250717, “Chromatin remodeling protein as a marker expressed by stromal progenitor cells” (Ramot AT Tel Aviv University Ltd., published 2005).
